Test results reported in publication PMC3858840.
Read-outs that look alike come from different tables or passages of the source. Each block holds one substance with its values, some of them ahead of it.

Assays:
[1] = target: FERM domain of human moesin (residues 1–346) (human) (UniProt P26038); assay: other fluorescence titration
[2] = target: TMR-CLS: TMR-labeled CLS_S329C (transmembrane and cytoplasmic domains of human L-selectin), in liposomes (human); assay: other fluorescence titration
[3] = target: TMR-CLS: TMR-labeled CLS_S329C (transmembrane and cytoplasmic domains of human L-selectin), in liposomes (human); assay: other fluorescence titration; remark: listed apart in the source
[4] = target: TMR-CLS: TMR-labeled CLS_S329C (transmembrane and cytoplasmic domains of human L-selectin), in liposomes (human); assay: other fluorescence titration; remark: listed apart in the source
[5] = target: TMR-CLS: TMR-labeled CLS_S329C (transmembrane and cytoplasmic domains of human L-selectin), in liposomes (human); assay: other fluorescence titration; remark: listed apart in the source
[6] = target: TMR-CLS: TMR-labeled CLS_S329C (transmembrane and cytoplasmic domains of human L-selectin), in liposomes (human); assay: other fluorescence titration; remark: listed apart in the source
[7] = target: TMR-ARR18, ARR18 with the N-terminal residue changed to cysteine and labelled with tetramethylrhodamine-5-maleimide (human); assay: other fluorescence titration
[8] = target: TMR-CLS: TMR-labeled CLS_S329C (transmembrane and cytoplasmic domains of human L-selectin), in liposomes (human); assay: other fluorescence titration; remark: listed apart in the source
[9] = target: L-selectin cytoplasmic peptide cytoplasmic domain (Homo sapiens) (UniProt P14151); conditions: cited from earlier work
[10] = target: moesin-FERM/TMR-CLS complex in 15% POPS/85% POPC liposome (human) (UniProt P26038); assay: other fluorescence titration

Sequence of FERM domain of human moesin (residues 1–346) (P26038 1-346): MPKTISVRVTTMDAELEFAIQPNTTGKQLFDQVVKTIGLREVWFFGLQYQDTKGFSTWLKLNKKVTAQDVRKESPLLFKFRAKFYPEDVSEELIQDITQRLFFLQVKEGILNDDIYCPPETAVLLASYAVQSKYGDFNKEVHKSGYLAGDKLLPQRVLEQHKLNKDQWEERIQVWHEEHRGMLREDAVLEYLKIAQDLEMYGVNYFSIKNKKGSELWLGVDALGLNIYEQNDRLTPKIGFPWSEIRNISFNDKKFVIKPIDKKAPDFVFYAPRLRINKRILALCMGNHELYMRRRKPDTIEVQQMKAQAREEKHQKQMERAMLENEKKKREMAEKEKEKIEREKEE
Sequence of FERM domain of human moesin (residues 1–346) (human) (P26038 1-346): as above
Sequence of moesin N-terminal fragment 1-296 (P26038 1-296): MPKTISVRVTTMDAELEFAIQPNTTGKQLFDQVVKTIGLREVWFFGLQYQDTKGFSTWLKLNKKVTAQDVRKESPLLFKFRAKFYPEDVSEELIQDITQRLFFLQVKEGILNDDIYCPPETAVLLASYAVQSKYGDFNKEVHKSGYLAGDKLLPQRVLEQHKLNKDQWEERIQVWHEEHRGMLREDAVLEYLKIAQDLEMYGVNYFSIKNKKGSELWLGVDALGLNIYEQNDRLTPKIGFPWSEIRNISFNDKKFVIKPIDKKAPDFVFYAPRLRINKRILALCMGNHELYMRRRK

Kd [1]: 196 nM
Substance: ARR18, cytoplasmic domain peptide of human L-selectin (residues Ala317–Tyr334)

Kd [2]: 133 nM
Kd [3]: 74 nM
Kd [4]: 67 nM
Kd [5]: 70 nM
Kd [6]: 96 nM
Kd [7]: 214 nM
Kd [8]: 302 nM
Substance: FERM domain of human moesin (residues 1–346) (from UniProt P26038 1-346) (domain or fragment)

Substance: moesin N-terminal fragment 1-296 (from UniProt P26038)
Kd [9]: 40 nM

Kd [10]: 800 nM
Substance: calmodulin (CaM), wild type (from UniProt P0DP23 1-149) (natural protein)
